One molecule from PMC12170886, “CHD8 interacts with BCL11A to induce oncogenic transcription in triple negative breast cancer” (The EMBO Journal, 2025) can be followed below.

This assay addresses T1, recombinant full-length human CHD8 (human, UniProt Q9HCK8 1-2581).
T1 construct: CHD8, human, full length; no cleavage of the tag is described; also called full-length CHD8; full-length Chd8; source: Expi293F, transiently transfected, purified (StrepTactin XT 4-Flow resin)
In words: SPR; Biacore T200; CHD8 amine-coupled to a C1 chip (1585 RU), BSA-coupled reference cell; BCL11A injected 2.62-5737.5 nM (1:3 series), 600 s association, 300 s dissociation; 25 °C, HBS-P+ (10 mM HEPES, 150 mM NaCl, 0.05% Tween 20, pH 7.4); steady-state fit of responses at 600 s. The conditions noted are these: both partners purified. In general terms: SPR reads the build-up and loss of mass on a sensor chip optically.

T1 sequence (Q9HCK8 whole entry): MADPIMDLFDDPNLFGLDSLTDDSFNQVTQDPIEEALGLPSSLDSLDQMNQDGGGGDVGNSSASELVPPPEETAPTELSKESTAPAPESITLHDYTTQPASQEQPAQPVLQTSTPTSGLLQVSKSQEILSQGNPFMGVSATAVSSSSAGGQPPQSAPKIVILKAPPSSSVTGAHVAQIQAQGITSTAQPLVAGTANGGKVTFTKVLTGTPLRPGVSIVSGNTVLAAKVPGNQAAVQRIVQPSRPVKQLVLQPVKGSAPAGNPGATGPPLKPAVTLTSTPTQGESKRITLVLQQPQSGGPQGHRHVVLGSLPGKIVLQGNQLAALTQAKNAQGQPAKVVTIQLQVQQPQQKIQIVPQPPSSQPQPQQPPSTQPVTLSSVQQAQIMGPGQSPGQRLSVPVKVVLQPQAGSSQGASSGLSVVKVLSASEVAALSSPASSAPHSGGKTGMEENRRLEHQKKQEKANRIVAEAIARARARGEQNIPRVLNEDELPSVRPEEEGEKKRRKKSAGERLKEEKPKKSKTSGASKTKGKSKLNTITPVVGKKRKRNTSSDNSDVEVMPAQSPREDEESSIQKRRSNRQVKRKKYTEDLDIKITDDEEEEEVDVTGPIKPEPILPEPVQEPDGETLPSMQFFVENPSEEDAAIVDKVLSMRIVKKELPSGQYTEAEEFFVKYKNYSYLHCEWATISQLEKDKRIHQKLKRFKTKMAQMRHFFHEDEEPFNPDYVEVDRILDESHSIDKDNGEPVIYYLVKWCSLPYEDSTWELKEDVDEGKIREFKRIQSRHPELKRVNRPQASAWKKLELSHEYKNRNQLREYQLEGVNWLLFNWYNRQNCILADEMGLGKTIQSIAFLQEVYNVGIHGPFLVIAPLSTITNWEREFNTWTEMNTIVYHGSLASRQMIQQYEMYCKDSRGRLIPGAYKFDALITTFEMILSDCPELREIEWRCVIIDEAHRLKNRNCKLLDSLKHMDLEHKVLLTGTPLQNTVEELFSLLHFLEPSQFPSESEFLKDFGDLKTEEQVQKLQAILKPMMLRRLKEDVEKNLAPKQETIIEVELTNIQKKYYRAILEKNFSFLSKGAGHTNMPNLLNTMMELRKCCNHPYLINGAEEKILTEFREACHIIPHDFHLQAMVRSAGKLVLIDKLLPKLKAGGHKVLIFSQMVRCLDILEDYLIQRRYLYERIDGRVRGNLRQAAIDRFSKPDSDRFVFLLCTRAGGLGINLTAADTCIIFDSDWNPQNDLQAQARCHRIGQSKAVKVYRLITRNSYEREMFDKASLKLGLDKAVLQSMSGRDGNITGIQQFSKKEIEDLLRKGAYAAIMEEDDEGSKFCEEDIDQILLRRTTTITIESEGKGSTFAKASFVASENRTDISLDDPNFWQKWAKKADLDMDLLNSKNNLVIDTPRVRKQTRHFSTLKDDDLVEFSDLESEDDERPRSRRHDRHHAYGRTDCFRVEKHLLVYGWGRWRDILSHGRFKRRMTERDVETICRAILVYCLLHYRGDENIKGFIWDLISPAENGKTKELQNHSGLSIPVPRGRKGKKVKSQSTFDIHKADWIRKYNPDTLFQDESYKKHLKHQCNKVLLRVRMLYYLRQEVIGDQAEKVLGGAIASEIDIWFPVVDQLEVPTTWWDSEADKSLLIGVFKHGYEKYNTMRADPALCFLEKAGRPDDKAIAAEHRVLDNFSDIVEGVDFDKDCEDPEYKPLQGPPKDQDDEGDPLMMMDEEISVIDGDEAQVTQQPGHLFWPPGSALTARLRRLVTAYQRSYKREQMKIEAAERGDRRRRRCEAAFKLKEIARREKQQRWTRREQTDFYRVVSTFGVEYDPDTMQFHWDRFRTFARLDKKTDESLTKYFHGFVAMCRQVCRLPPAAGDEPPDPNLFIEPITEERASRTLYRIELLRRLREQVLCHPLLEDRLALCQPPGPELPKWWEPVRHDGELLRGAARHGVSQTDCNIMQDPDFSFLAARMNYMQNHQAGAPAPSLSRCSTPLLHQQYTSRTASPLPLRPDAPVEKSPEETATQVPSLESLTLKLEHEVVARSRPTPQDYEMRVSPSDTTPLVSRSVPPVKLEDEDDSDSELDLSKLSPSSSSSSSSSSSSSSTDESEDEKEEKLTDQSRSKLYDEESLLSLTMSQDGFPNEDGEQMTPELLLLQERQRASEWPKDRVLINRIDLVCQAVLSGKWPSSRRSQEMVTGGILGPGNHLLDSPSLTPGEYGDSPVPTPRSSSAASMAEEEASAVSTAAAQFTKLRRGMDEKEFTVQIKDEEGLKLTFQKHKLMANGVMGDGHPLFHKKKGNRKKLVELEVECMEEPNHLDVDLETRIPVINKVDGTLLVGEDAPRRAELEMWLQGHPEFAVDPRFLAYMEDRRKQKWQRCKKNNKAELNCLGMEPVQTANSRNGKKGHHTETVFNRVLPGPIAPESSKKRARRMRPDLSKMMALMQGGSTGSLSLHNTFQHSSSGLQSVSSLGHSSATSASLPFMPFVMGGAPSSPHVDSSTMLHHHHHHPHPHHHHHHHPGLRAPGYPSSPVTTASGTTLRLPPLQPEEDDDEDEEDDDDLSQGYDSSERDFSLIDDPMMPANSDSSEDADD

B1: recombinant full-length human BCL11A (natural protein, UniProt Q9H165 1-835, looked up)
chain: MSRRKQGKPQHLSKREFSPEPLEAILTDDEPDHGPLGAPEGDHDLLTCGQCQMNFPLGDILIFIEHKRKQCNGSLCLEKAVDKPPSPSPIEMKKASNPVEVGIQVTPEDDDCLSTSSRGICPKQEHIADKLLHWRGLSSPRSAHGALIPTPGMSAEYAPQGICKDEPSSYTCTTCKQPFTSAWFLLQHAQNTHGLRIYLESEHGSPLTPRVGIPSGLGAECPSQPPLHGIHIADNNPFNLLRIPGSVSREASGLAEGRFPPTPPLFSPPPRHHLDPHRIERLGAEEMALATHHPSAFDRVLRLNPMAMEPPAMDFSRRLRELAGNTSSPPLSPGRPSPMQRLLQPFQPGSKPPFLATPPLPPLQSAPPPSQPPVKSKSCEFCGKTFKFQSNLVVHRRSHTGEKPYKCNLCDHACTQASKLKRHMKTHMHKSSPMTVKSDDGLSTASSPEPGTSDLVGSASSALKSVVAKFKSENDPNLIPENGDEEEEEDDEEEEEEEEEEEEELTESERVDYGFGLSLEAARHHENSSRGAVVGVGDESRALPDVMQGMVLSSMQHFSEAFHQVLGEKHKRGHLAEAEGHRDTCDEDSVAGESDRIDDGTVNGRGCSPGESASGGLSKKLLLGSPSSLSPFSKRIKLEKEFDLPPAAMPNTENVYSQWLAGYAASRQLKDPFLSFGDSRQSPFASSSEHSSENGSLRFSTPPGELDGGISGRSGTGSGGSTPHISGPGPGRPSSKEGRRSDTCEYCGKVFKNCSNLTVHRRSHTGERPYKCELCNYACAQSSKLTRHMKTHGQVGKDVYKCEICKMPFSVYSTLEKHMKKWHSDRVLNNDIKTE
notes: BCL11A, human, full length; no cleavage of the tag is described; also called full-length BCL11A; source: Expi293F, transiently transfected, purified (StrepTactin XT 4-Flow resin)
The term Kd denotes the constant that tells how readily two partners part at equilibrium. On to B1, for which the dissociation constant (Kd) is 870 nM.
